In paper PMC12442443, “Identifying interactions between TDP‐43's N‐terminal and RNA‐binding domains” (Protein Science : A Publication of the Protein Society, 2024):

Biological target: the molecule itself
Assay: native gel or EMSA; 4-16% Bis-Tris native gel, Coomassie; 8.125 uM RRM alone or with NTD(1-77) at 0.5:1, 1:1 and 2:1 (NTD:RRM); incubated 10 min at 25 C in 300 mM NaCl, 40 mM HEPES pH 6.5, 4 mM DTT; full shift only at 2:1; also repeated with added RNA

B1: TDP-43(102-260), tandem RNA recognition motifs RRM1 and RRM2 of TAR DNA-binding Protein 43 kilodaltons (domain or fragment, human)
chain: KTSDLIVLGLPWKTTEQDLKEYFSTFGEVLMVQVKKDLKTGHSKGFGFVRFTEYETQVKVMSQRHMIDGRWCDCKLPNSKQSQDEPLRSRKVFVGRCTEDMTEDELREFFSQYGDVMDVFIPKPFRAFAFVTFADDQIAQSLCGEDLIIKGISVHISNA
notes: 15N-labelled (M9 medium with 15NH4Cl) in the CPMG NMR; also called RRMs; RRM12; source: E. coli BL21(DE3), purified (His-Trap, Superdex size exclusion)
  stoichiometry N: 2
